Data on four substances can be found in paper PMC3202462.

In assay [1] the target is E-domain of gephyrin (residues 309-750, P1 variant). As to the kind of experiment: ITC.
Assay [2] concerns the target GST fusion of the intracellular domain of the GABAAR α5 subunit. Briefly: far-Western, overlay or dot blot.
Assay [3] deals with GST fusion of the intracellular loop of the GABAAR α2 subunit. As to the kind of experiment: far-Western, overlay or dot blot.
In the next assay the target is GST-α1 T375A (mouse) (UniProt P62812). As to the kind of experiment: far-Western, overlay or dot blot.
In the next assay the target is GST-α1 T375D (mouse) (UniProt P62812). Briefly: far-Western, overlay or dot blot.
The next assay concerns the target GST-α1 T375E (mouse) (UniProt P62812). As to the kind of experiment: far-Western, overlay or dot blot.

pKd: −log10 of the molar value.

On to “6-His-tagged GABAAR α1 cytoplasmic loop (M3-M4), wild type (domain or fragment)”, for which, in assay [1], the pKd (usually −log10 of the Kd, conventionally taken in molar units) was 4.77 and the stoichiometry N (in general, a count of units in the complex or per binding partner) is 0.62.
As to “35S-methionine-labelled gephyrin, P1 isoform (natural protein)”, the gephyrin binding, % of control is 12.9 % of control in assay [2] and 109 % of control in the assay with GST-α1 T375A (mouse). The gephyrin binding, % of GST-α1 in assay [3] was 43.7 % of GST-α1. Moreover, the gephyrin binding normalised to GST-α1 (100%) was determined as 68.9% with GST-α1 T375D (mouse) and 62.5% in the assay with GST-α1 T375E (mouse).
Consider “6-His-tagged GABAAR α1 T375E cytoplasmic loop (domain or fragment)”, for which, in assay [1], the pKd was 3.74 and the stoichiometry N is 0.69.
“6-His-tagged GABAAR α1 T375A cytoplasmic loop (domain or fragment)”: in assay [1], the pKd was 4.44, the dH is -15 kcal/mol and the stoichiometry N amounted to 0.64.
